Legend:
[1] = biological target: HA-tagged AKT (wild type), P31749
[2] = biological target: HA-tagged AKT Y176F mutant, P31749
[3] = biological target: HA-tagged AKT deletion construct lacking the PH domain, P31749

B1: purified tagged Ack1 expressed in HEK293T cells (protein)
chain: MQPEEGTGWLLELLSEVQLQQYFLRLRDDLNVTRLSHFEYVKNEDLEKIGMGRPGQRRLWEAVKRRKALCKRKSWMSKVFSGKRLEAEFPPHHSQSTFRKTSPAPGGPAGEGPLQSLTCLIGEKDLRLLEKLGDGSFGVVRRGEWDAPSGKTVSVAVKCLKPDVLSQPEAMDDFIREVNAMHSLDHRNLIRLYGVVLTPPMKMVTELAPLGSLLDRLRKHQGHFLLGTLSRYAVQVAEGMGYLESKRFIHRDLAARNLLLATRDLVKIGDFGLMRALPQNDDHYVMQEHRKVPFAWCAPESLKTRTFSHASDTWMFGVTLWEMFTYGQEPWIGLNGSQILHKIDKEGERLPRPEDCPQDIYNVMVQCWAHKPEDRPTFVALRDFLLEAQPTDMRALQDFEEPDKLHIQMNDVITVIEGRAENYWWRGQNTRTLCVGPFPRNVVTSVAGLSAQDISQPLQNSFIHTGHGDSDPRHCWGFPDRIDELYLGNPMDPPDLLSVELSTSRPPQHLGGVKKPTYDPVSEDQDPLSSDFKRLGLRKPGLPRGLWLAKPSARVPGTKASRGSGAEVTLIDFGEEPVVPALRPCAPSLAQLAMDACSLLDETPPQSPTRALPRPLHPTPVVDWDARPLPPPPAYDDVAQDEDDFEICSINSTLVGAGVPAGPSQGQTNYAFVPEQARPPPPLEDNLFLPPQGGGKPPSSAQTAEIFQALQQECMRQLQAPAGSPAPSPSPGGDDKPQVPPRVPIPPRPTRPHVQLSPAPPGEEETSQWPGPASPPRVPPREPLSPQGSRTPSPLVPPGSSPLPPRLSSSPGKTMPTTQSFASDPKYATPQVIQAPGPRAGPCILPIVRDGKKVSSTHYYLLPERPSYLERYQRFLREAQSPEEPTPLPVPLLLPPPSTPAPAAPTATVRPMPQAALDPKANFSTNNSNPGARPPPPRATARLPQRGCPGDGPEAGRPADKIQMAMVHGVTTEECQAALQCHGWSVQRAAQYLKVEQLFGLGLRPRGECHKVLEMFDWNLEQAGCHLLGSWGPAHHKR
[1]
  AKT Tyr176-phosphorylation (in vitro phosphorylation of purified AKT by Ack1, immunoblot): purified Ack1 interacted directly with AKT resulting in AKT Tyr176-phosphorylation

B2: endogenous Ack1 of mouse embryo fibroblasts (protein)
chain: MQPEEGTGWLLELLSEVQLQQYFLRLRDDLNITRLSHFEYVKNEDLEKIGMGRPGQRRLWEAVKRRKAMCKRKSWMSKVFSGKRLEAEFPSQHSQSTFRKPSPTPGSLPGEGTLQSLTCLIGEKDLRLLEKLGDGSFGVVRRGEWDAPAGKTVSVAVKCLKPDVLSQPEAMDDFIREVNAMHSLDHRNLIRLYGVVLTLPMKMVTELAPLGSLLDRLRKHQGHFLLGTLSRYAVQVAEGMAYLESKRFIHRDLAARNLLLATRDLVKIGDFGLMRALPQNDDHYVMQEHRKVPFAWCAPESLKTRTFSHASDTWMFGVTLWEMFTYGQEPWIGLNGSQILHKIDKEGERLPRPEDCPQDIYNVMVQCWAHKPEDRPTFVALRDFLLEAQPTDMRALQDFEEPDKLHIQMNDVITVIEGRAENYWWRGQNTRTLCVGPFPRNVVTSVAGLSAQDISQPLQNSFIHTGHGDSDPRHCWGFPDRIDELYLGNPMDPPDLLSVELSTSRPTQHLGRVKREPPPRPPQPAIFTQKTTYDPVSEDPDPLSSDFKRLGLRKPALPRGLWLAKPSARVPGTKADRSSGGEVTLIDFGEEPVVPTPRPCAPSLAQLAMDACSLLDKTPPQSPTRALPRPLHPTPVVDWDARPLPPPPAYDDVAQDEDDFEVCSINSTLVGAGLPAGPSQGETNYAFVPEQAQMPPALEDNLFLPPQGGGKPPSSVQTAEIFQALQQECMRQLQVPTGQLTPSPTPGGDDKPQVPPRVPIPPRPTRPRVELSPAPSGEEETSRWPGPASPPRVPPREPLSPQGSRTPSPLVPPGSSPLPHRLSSSPGKTMPTTQSFASDPKYATPQVIQAPGPRAGPCILPIVRDGRKVSSTHYYLLPERPPYLERYQRFLREAQSPEEPAALPVPPLLPPPSTPAPAAPTATVRPMPQAAPDPKANFSTNNSNPGARPPSLRAAARLPQRGCPGDGQEAARPADKVQMLQAMVHGVTTEECQAALQSHSWSVQRAAQYLKVEQLFGLGLRPRVECHKVLEMFDWNLEQAGCHLLGSCGPAHHKR
[2]
  AKT Tyr/Ser-phosphorylations (IP and immunoblot): decreased AKT Tyr/Ser-phosphorylations

B3: activated Ack1 (caAck, L487F mutant) (protein)
chain: MQPEEGTGWLLELLSEVQLQQYFLRLRDDLNVTRLSHFEYVKNEDLEKIGMGRPGQRRLWEAVKRRKALCKRKSWMSKVFSGKRLEAEFPPHHSQSTFRKTSPAPGGPAGEGPLQSLTCLIGEKDLRLLEKLGDGSFGVVRRGEWDAPSGKTVSVAVKCLKPDVLSQPEAMDDFIREVNAMHSLDHRNLIRLYGVVLTPPMKMVTELAPLGSLLDRLRKHQGHFLLGTLSRYAVQVAEGMGYLESKRFIHRDLAARNLLLATRDLVKIGDFGLMRALPQNDDHYVMQEHRKVPFAWCAPESLKTRTFSHASDTWMFGVTLWEMFTYGQEPWIGLNGSQILHKIDKEGERLPRPEDCPQDIYNVMVQCWAHKPEDRPTFVALRDFLLEAQPTDMRALQDFEEPDKLHIQMNDVITVIEGRAENYWWRGQNTRTLCVGPFPRNVVTSVAGLSAQDISQPLQNSFIHTGHGDSDPRHCWGFPDRIDELYFGNPMDPPDLLSVELSTSRPPQHLGGVKKPTYDPVSEDQDPLSSDFKRLGLRKPGLPRGLWLAKPSARVPGTKASRGSGAEVTLIDFGEEPVVPALRPCAPSLAQLAMDACSLLDETPPQSPTRALPRPLHPTPVVDWDARPLPPPPAYDDVAQDEDDFEICSINSTLVGAGVPAGPSQGQTNYAFVPEQARPPPPLEDNLFLPPQGGGKPPSSAQTAEIFQALQQECMRQLQAPAGSPAPSPSPGGDDKPQVPPRVPIPPRPTRPHVQLSPAPPGEEETSQWPGPASPPRVPPREPLSPQ
[3]
  Tyr-phosphorylation of AKT deletion constructs (IP with HA antibodies, immunoblot with pTyr antibodies): AKT deletion construct lacking the PH domain (ΔPH-AKT) exhibited significant decrease in Tyr-phosphorylation

Reference: patent US20120053225
